Assay results: article PMC2955050
Non-standard residues stand in square brackets, D forms with d. No end group written: not given here. pY = N[C@@H](Cc1ccc(OP(=O)(O)O)cc1)C(=O)O

Molecular target: recombinant DLAR catalytic domain (Drosophila)

Row | Binder | Kcat/Km of dephosphorylation of the peptide by DLAR (malachite green phosphatase assay) [sec^-1M^-1]
1 | TRDI[pY]ETDYYRK [Insulin receptor peptide TRDI(pY)ETDYYRK] | 264000
2 | TAEPD[pY]GALYE [Cuticle peptide TAEPD(pY)GALYE] | 300000
3 | CDDS[pY]FGNKC (cysteine pairing not given here) [Myospheroid peptide CDDS(pY)FGNKC] | 143000
4 | VIGD[pY]VCRLCK (cysteine pairing not given here) [Nervous Fingers peptide VIGD(pY)VCRLCK] | 196000
5 | RDDT[pY]TAHAG [Abelson peptide RDDT(pY)TAHAG] | 180000
